Positions count from the first letter of the chain named. In names and notes the source's numbering stands. Where two headings read alike, the source gives them in different places.

8 molecules from paper PMC8789800 can be followed below.

Assay [1] deals with double-phosphorylated ERK2 (ppERK2) (human) (UniProt P28482). In words: fluorescence polarisation.
The test system of assay [2] is activated RSK2. Type of assay: biochemical, Human. Conditions: 10 µM GST-fusion substrate, 0.5 µM activated RSK2, no competitor.
The test system of assay [3] is activated RSK2. In words: In vitro kinase assay of EIF4B RxxS/T phosphorylation reporters with activated RSK2, Anti-RxxpS/pT Western-blot. Conditions: 10 µM GST-fusion construct, 100 nM activated RSK2; mean ± SD, N = 3.
The test system of assay [4] is MKP3. In words: ppERK2 dephosphorylation by MKP3, quantitative Western-blot. In kind it is biochemical, human. Conditions: 1 μM ppERK2, 1 μM MKP3; 1 μM RSK2; 1 or 5 μM ORF45(16-76). The text has this:
(§1) Phosphorimaging results are plotted on the panel at the right based on one experiment (N = 1). b In vitro kinase assay results on RSK substrate phosphorylation. […] The schematic panel on the right highlights the hierarchical phosphorylation events (one-end arrows) and the PPIs (two-end arrows) required for NTK mediated phosphorylation of RSK substrates.
Sequences of oligonucleotides used for cloning are listed in Supplementary Table 4.

Assay [5] concerns RSK2 and ERK2-RSK2 complex. Description: Size-exclusion chromatography with fluorescently labeled ORF45(16-76). Type of assay: binding. Conditions: peptide labeled with a fluorescent dye. In general terms: SEC sorts molecules by how far they enter the pores of the column.
For assay [6], the system named is ppERK2 → RSK2. Description: In vitro kinase assay, 10 nM ppERK2 phosphorylating 2 µM RSK2, phosphorimaging. Type of assay: biochemical, Human. The conditions noted are these: 50 µM ORF45 peptide; tested on ppERK2 → RSK2 and MKK1 → ERK2 → RSK2. The method, then: as §1
Radioactivity based kinase reactions were carried out in 50 mM HEPES, pH 7.5, 100 mM NaCl, 5 mM MgCl2, 0.05% IGEPAL, 5% glycerol, 2 mM DTT using recombinant expressed and purified proteins in the presence of 250 μM ATP and ∼5 μCi of [γ-^32P]ATP. Reactions were stopped with protein loading sample buffer complemented with 20 mM EDTA, boiled, and then subjected to SDS-PAGE. Gels were dried before phosphorimaging by a Typhoon Trio+ scanner (GE Healthcare).

The subject of assay [7] is MBP-NTK_RSK2. In kind it is binding, Human. Conditions: GST-fusion preys, 10–20 µM; Coomassie gel; N = 1; ORF45 = GST-ORF45(16-76).
For assay [8], the system named is activated RSK2. Description: In vitro kinase assay of RHDF1(1-289) wild type and F281A with activated RSK2, Anti-RxxpS/pT Western-blot.

double-phosphorylated ERK2 (ppERK2) (human), sequence (P28482 whole entry, the tested form may be a part): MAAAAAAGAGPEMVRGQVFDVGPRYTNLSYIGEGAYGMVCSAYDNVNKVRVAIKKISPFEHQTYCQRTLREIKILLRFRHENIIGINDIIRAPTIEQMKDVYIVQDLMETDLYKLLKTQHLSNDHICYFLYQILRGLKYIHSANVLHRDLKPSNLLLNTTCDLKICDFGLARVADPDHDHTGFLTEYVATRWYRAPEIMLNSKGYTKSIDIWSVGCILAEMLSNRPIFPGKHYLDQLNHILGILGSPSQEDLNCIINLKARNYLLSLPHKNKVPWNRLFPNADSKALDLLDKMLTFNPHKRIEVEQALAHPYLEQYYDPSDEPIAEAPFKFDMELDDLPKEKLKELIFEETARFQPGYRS

Molecule unlabeled ORF45(16-40) peptide came in with a Kd in assay [1] of 800 nM.

With “411-ETQERERSRTGSESSQTGTS-430 [RxxSEIF4B]”, the initial phosphorylation rate in assay [2] (Sample_1) was 0.3562; in assay [2] (Sample_2), 0.455; in assay [2] (Sample_3) it was 0.379; in assay [2] (mean N=3), 0.3967. The same molecule had a RxxSEIF4B phosph. rate in assay [3] of 0.03 ± 0.01 arb. unit / min.

Consider “RSK2: purified human RSK2 added to the ppERK2 dephosphorylation assay”, for which the “protection of ppERK2 from dephosphorylation by MKP3” value in assay [4] is “did not protect ppERK2 from dephosphorylation”.

“ORF45(16-76): 61 amino acid long N-terminal ORF45 peptide, expressed as GST-fusion and cleaved; GST-fusion in Fig. 7 and 8”: in assay [5], the “binding in size-exclusion chromatography” value was “binds to RSK2 as well as to the ERK2-RSK2 complex”. The “effect on RSK2 phosphorylation in vitro” value in assay [6] is reported as “blocked RSK2 phosphorylation”.

For “ORF45(16-76)-F66A: VF-motif mutated version of GST-ORF45(16-76)”, in assay [7], the “binding in MBP pull-down, RSK2 NTK” value was “did not show detectable binding”.

B1: RHDF: human RHDF1 construct 1-289, wild type (protein, UniProt Q96CC6 1-289, looked up, fragment)
chain: MSEARRDSTSSLQRKKPPWLKLDIPSAVPLTAEEPSFLQPLRRQAFLRSVSMPAETAHISSPHHELRRPVLQRQTSITQTIRRGTADWFGVSKDSDSTQKWQRKSIRHCSQRYGKLKPQVLRELDLPSQDNVSLTSTETPPPLYVGPCQLGMQKIIDPLARGRAFRVADDTAEGLSAPHTPVTPGAASLCSFSSSRSGFHRLPRRRKRESVAKMSFRAAAALMKGRSVRDGTFRRAQRRSFTPASFLEEDTTDFPDELDTSFFAREGILHEELSTYPDEVFESPSEAAL
For B1, the initial phosphorylation rate was 0.1656 in assay [2] (Sample_1), 0.1405 in assay [2] (Sample_2), 0.1427 in assay [2] (Sample_3) and 0.1496 in assay [2] (mean N=3). The “RxxS motif phosphorylation, Normalized to RHDF_Mean” value in assay [8] (Sample_1) is recorded as 1.075; in assay [8] (Sample_2), 0.9889; in assay [8] (Sample_3), 0.9363; in assay [8] (mean N=3), 1.

B2: RHDF_F281A: RHDF1_1-289 with the VF motif mutated (F281A) (protein, UniProt Q96CC6 1-289, looked up, variant F281A)
chain: B1 chain with F281A
Turning to B2, the “RxxS motif phosphorylation, Normalized to RHDF_Mean” value in assay [8] (Sample_1) was 0.1221; in assay [8] (Sample_2) it was 0.1251; in assay [8] (Sample_3), 0.1185; in assay [8] (mean N=3) it was 0.1219.

B3: SOS1: human SOS1 construct 1101-1170 (legend also 1101-1171) (protein, UniProt Q07889 1101-1170, looked up, fragment)
chain: VCSVFDSDHSSPFHSSNDTVFIQVTLPHGPRSASVSSISLTKGTDEVPVPPPVPPRRRPESAPAESSPSK
In the case of B3, the initial phosphorylation rate in assay [2] (Sample_1) came out at 1.226; in assay [2] (Sample_2), 1.21; in assay [2] (Sample_3), 0.88; in assay [2] (mean N=3), 1.105.

As a reminder, the Kd is the constant that tells how readily two partners part at equilibrium. Lower therefore signals a tighter complex.
